Source: US20260234261A1 (published 2026)
Changes are numbered by the printed parent chain. Like-named read-outs stand apart in the source and are kept apart here. One block for each binder: values may come before it.

Key:
Experiment in all cases: FACS binding
[1] = target: T1, human CTLA4 (overexpressed on CHOS-hCTLA4 cells) (human, UniProt P16410 36-223)
[2] = target: T2, human CCR8 (overexpressed on CHOS-hCCR8 cells) (human, UniProt P51685 1-355)
[3] = target: T3, human CTLA4 and human CCR8 co-expressed on CHOS-hCTLA4/hCCR8 double-positive cells (human, UniProt P16410 36-223; P51685 1-355)
[4] = target: T1, human CTLA4 (overexpressed on …); remark: listed apart in the source
[5] = target: T3, human CTLA4 and human CCR8 co-expressed …; remark: listed apart in the source
[6] = target: T3, human CTLA4 and human CCR8 co-expressed …; remark: listed apart in the source
[7] = target: T1, human CTLA4 (overexpressed on …); remark: listed apart in the source
[8] = target: T3, human CTLA4 and human CCR8 co-expressed …; remark: listed apart in the source
[9] = target: T2, human CCR8 (overexpressed on CHOS-hCCR8 …); remark: listed apart in the source
[10] = target: T2, human CCR8 (overexpressed on CHOS-hCCR8 …); remark: listed apart in the source
[11] = target: T2, human CCR8 (overexpressed on CHOS-hCCR8 …); remark: listed apart in the source

T2 sequence (P51685 whole entry): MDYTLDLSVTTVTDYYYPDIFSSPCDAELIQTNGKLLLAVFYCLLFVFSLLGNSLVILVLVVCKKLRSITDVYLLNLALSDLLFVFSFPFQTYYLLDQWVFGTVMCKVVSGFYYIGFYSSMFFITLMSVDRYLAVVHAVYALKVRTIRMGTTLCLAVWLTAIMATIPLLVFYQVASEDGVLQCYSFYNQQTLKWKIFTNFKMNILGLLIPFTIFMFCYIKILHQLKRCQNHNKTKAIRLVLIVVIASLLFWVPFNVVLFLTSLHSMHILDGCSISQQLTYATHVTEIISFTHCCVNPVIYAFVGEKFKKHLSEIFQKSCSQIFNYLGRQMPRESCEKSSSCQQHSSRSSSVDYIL
T1 sequence (P16410 36-223): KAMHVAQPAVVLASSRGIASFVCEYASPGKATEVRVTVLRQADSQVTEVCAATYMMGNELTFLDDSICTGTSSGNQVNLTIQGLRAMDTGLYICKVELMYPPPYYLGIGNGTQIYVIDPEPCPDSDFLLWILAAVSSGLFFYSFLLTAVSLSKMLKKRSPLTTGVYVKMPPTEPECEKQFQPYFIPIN
T3 sequence (P16410 36-223, chain 1 of 2): as the sequence (P16410 36-223) above
T3 sequence (P51685 whole entry, chain 2 of 2): as the sequence (P51685 whole entry) above

- EC50 [1]: 28.2 nM
- EC50 [2]: 6.55 nM
- EC50 [3]: 11.3 nM
B1: Anti-CTLA4(ip-05)×CCR8-6 (bispecific antibody)
heavy 1: not shown
light 1: not shown
heavy 2: not shown
light 2: EIVLTQSPATLSLSPGERATLSCRASQSVSSYLAWYQQKPGQAPRLLIYDASNRATGIPARFSGSGSGTDFTLTISSLEPEDFAVYYCQQYSAWPLTFGGGTKVEIKRTVAAPSVFIFPPSDEELKSGTASVQCLLNNFYPREAKVQWKVDNALQSGNSQESVTEQDSKDSTYSLSSELTLSKADYEKHKVYACEVTHQGLSSPVTKSFNRGEC

- EC50 [1]: 77.4 nM
- EC50 [2]: 43.9 nM
- EC50 [3]: 20.8 nM
B2: Anti-CTLA4(ip-05)×CCR8-4 (bispecific antibody)
heavy 1: not shown
light 1: not shown
heavy 2: not shown
light 2: B1 light 2 with E124Q, T129R, Q133V, E178R, T180Q

- EC50 [4]: 0.521 nM
- EC50 [5]: 0.623 nM
B3: ONC-392 Analog (antibody, V domains shown)
VH: QVQLQESGPGLVKPSETLSLTCTVSGFSLTSYGLSWIRQPPGKGLEWIGYIWYDGNTNFHSPLKSRVTISVDTSKNQFSLKLSSVTAADTAVYYCAKTEGHYYGSNYGYYALDYWGQGTLVTVSS
VL: DIQMTQSPSSLSASVGDRVTITCRASENIYSNLAWYQQKQGKAPKLLLYAATNLQDGVPSRFSGSGSGTDYTLTISSLQPEDFATYFCQHLWGTPYTFGQGTKLEIKR

- EC50 [6]: 361 nM
B4: Anti-CTLA4(ip-0508) (antibody, V domains shown)
VH: EVQLVESGGGVVQPGRSLRLSCAASGFTFSSYTMHWVRQAPGKGLEWVTFISEDGNNKYYADSVKGRFTISRDNSKNTLYLQMNSLRAEDTAIYYCARTGWLGPEDYWGQGTLVTVSS
VL: not shown

- EC50 [7]: 3.6 nM
- EC50 [8]: 11.8 nM
B5: Anti-CTLA4(ip-05)-1 (antibody, V domains shown)
VH: B4 VH with E105F
VL: not shown

- EC50 [4]: 3.98 nM
- EC50 [9]: 51.7 nM
- EC50 [5]: 98.2 nM
B6: Anti-CTLA4(ip-05)-1 Afu (antibody, V domains shown)
VH: B4 VH with E105F
VL: not shown

- EC50 [5]: 22.2 nM
B7: Anti-CCR8(ADI68741-R2-21-DA)-Afu (antibody, V domains shown)
VH: EVQLVQSGAEVKKPGASVKVSCKASGYTFTSYYMHWVRQAPGQGLEWMGIINPMTGSASHAQKFQGRVTMTRDTSTSTVYMELSSLRSEDTAVYYCVRDAAARHKYFAFWGRGTLVTVSS
VL: EIVLTQSPATLSLSPGERATLSCRASQSVSSYLAWYQQKPGQAPRLLIYDASNRATGIPARFSGSGSGTDFTLTISSLEPEDFAVYYCQQYSAWPLTFGGGTKVEIKR

- EC50 [10]: 0.215 nM
- EC50 [6]: 0.194 nM
- EC50 [11]: 0.743 nM
- EC50 [8]: 0.351 nM
B8: Anti-CCR8(ADI68741)-1 (antibody, V domains shown)
VH: B7 VH with M54G, A58T, V97A, A100G, A102F, A108D, F109L
VL: B7 VL

- EC50 [5]: 0.595 nM
B9: Anti-CCR8(ADI68741)-1 Afu (antibody, V domains shown)
VH: B7 VH with M54G, A58T, V97A, A100G, A102F, A108D, F109L
VL: B7 VL
